This data set concerns the target BNP (brain natriuretic peptide) (UniProt P16860 P16860:103-134). The experiment in a line: FRET recovery from carboxylated graphene oxide quencher (40 ug/ml), 100 nmol/L aptamer, pH 7.2-7.4, room temperature, 35 min. The following applies: label: 5'-FAM. The source says:
The signal response relationship between BNP concentration and fluorescence intensity obtained by detecting BNP in the present invention, its specific detection steps are as follows: [0080] (1) Blank control experiment: individually detect the fluorescence intensity of 100 nmol/L aptamer solution, and set the excitation wavelength as 492 nm, the emission wavelength as 519 nm, and the emission spectrum detection range as 505-610 nm, then use the obtained results as controls. [0081] (2) Mix 100 nmol/L of aptamer solution with 40 ug/ml of carboxylated graphene oxide solution by equal volume, and control the pH value of the solution at 7.2-7.4, and then leave it at room temperature for about 20 min. Then add BNP solution having a series of concentration gradients, respectively, leave it at room temperature for about 35 min, next take out an appropriate amount of mixed solution for fluorescence detection, and record fluorescence spectra at different concentrations. […] With the increase of the BNP concentration, the fluorescence intensity of the solution gradually increases. [0082]

Sequence of BNP (brain natriuretic peptide) (P16860 103-134, one chain of several): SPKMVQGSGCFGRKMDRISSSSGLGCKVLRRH

B1: FAM-labelled BNP aptamer (ssDNA)
DNA: TTTTTTTATACGGGAGCCAACACCACCTCTCACATTATATTGTGAATACTTCGTGCTGTTTAGAGCAGGTGTGACGGAT
As to B1, the binding result was “binds”.

The values are drawn from patent publication US20240192201, “BRAIN NATRIURETIC PEPTIDE APTAMER FLUORESCENCE DETECTION DEVICE BASED ON SMART PHONE AND SENSING METHOD OF SAME” (TianJin University, published 2024).
